The values that follow come from patent US20240018502A1.

The assay concerns the target plasma purified human complement protein C3 (human) (UniProt P01024). Description: cell-based or functional assay.

Sequence of plasma purified human complement protein C3 (human) (P01024 23-667, chain 1 of 2): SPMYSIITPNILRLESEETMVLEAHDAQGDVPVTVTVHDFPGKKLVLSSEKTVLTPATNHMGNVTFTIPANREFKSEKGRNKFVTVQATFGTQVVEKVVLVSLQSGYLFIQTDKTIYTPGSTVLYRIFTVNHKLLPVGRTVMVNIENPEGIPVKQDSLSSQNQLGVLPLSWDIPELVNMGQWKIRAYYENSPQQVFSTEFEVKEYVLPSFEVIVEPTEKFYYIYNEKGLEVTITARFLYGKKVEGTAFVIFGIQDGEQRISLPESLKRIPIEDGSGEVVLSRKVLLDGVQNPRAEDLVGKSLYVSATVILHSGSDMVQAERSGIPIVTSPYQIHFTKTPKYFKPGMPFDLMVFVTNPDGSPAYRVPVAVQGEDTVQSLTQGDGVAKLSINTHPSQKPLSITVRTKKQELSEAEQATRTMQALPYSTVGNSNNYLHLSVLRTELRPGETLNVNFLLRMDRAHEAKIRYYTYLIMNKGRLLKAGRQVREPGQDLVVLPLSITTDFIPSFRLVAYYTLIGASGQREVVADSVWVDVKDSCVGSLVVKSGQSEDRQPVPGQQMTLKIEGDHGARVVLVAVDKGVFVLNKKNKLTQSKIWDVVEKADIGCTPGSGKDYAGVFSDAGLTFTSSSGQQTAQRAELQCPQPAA
Sequence of plasma purified human complement protein C3 (human) (P01024 672-1663, chain 2 of 2): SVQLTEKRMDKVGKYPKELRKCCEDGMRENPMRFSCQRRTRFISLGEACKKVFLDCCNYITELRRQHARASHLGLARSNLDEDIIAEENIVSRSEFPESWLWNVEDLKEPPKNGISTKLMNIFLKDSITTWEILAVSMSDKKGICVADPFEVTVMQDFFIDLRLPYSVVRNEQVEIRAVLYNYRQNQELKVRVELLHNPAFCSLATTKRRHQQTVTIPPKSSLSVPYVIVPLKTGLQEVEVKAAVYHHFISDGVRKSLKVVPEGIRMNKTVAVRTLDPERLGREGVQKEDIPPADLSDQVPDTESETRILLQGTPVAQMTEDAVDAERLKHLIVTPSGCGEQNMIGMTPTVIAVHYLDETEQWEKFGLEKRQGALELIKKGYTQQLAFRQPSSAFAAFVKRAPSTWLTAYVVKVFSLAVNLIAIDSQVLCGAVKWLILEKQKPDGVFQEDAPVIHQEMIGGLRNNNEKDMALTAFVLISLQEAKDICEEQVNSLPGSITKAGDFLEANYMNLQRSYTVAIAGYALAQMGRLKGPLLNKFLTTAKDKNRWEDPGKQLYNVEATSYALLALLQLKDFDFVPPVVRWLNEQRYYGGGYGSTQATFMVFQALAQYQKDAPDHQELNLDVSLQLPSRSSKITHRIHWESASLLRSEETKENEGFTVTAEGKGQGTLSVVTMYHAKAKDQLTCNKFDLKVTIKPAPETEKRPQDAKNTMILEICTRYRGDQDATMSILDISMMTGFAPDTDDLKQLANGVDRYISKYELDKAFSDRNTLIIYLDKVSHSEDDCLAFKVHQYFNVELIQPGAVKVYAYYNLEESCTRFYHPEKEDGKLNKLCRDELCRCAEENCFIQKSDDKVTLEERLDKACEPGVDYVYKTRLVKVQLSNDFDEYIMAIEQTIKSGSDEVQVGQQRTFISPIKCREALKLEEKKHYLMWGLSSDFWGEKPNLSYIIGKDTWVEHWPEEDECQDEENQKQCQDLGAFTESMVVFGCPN

B1: MTSP-1 Q38E/I41S/D60bV/F60eK/Y60gW/F97T/ins97aE/T98G/F99L/C122S/G151N/Q175L/Q192D (enzyme)
chain: VVGGTDADEGEWPWQVSLHALGEGHSCGASLISPNWLVSAAHCYIDVRGKRWSDPTQWTAFLGLHDQSQRSAPGVQERRLKRIISHPFFNDTEGLDYDIALLELEKPAEYSSMVRPISLPDASHVFPAGKAIWVTGWGHTQYGGTNALILQKGEIRVINQTTCENLLPQLITPRMMCVGFLSGGVDSCDGDSGGPLSSVEADGRIFQAGVVSWGDGCAQRNKPGVYTRLPLFRDWIKENTGV
Turning to B1, the EC50 of hC3 cleavage amounted to 12.1 nM.

B2: MTSP-1 Q38H2I/I41S/F97T/ins97aE/T98G/F99L/C122S/Q175L/Q192V (enzyme)
chain: VVGGTDADEGEWPWQVSLHALGKGHSCGASLISPNWLVSAAHCYIDDRGFRYSDPTQWTAFLGLHDQSQRSAPGVQERRLKRIISHPFFNDTEGLDYDIALLELEKPAEYSSMVRPISLPDASHVFPAGKAIWVTGWGHTQYGGTGALILQKGEIRVINQTTCENLLPQLITPRMMCVGFLSGGVDSCVGDSGGPLSSVEADGRIFQAGVVSWGDGCAQRNKPGVYTRLPLFRDWIKENTGV
In turn, B2 came in with an EC50 of hC3 cleavage of 43 nM.

B3: MTSP-1 Q38H/I41S/D60bT/F60eS/Y60gW/F97D/ins97aV/T98P/F99L/C122S/G151H/Q175A/Q192D (enzyme)
chain: VVGGTDADEGEWPWQVSLHALGHGHSCGASLISPNWLVSAAHCYIDTRGSRWSDPTQWTAFLGLHDQSQRSAPGVQERRLKRIISHPFFNDDVPLDYDIALLELEKPAEYSSMVRPISLPDASHVFPAGKAIWVTGWGHTQYGGTHALILQKGEIRVINQTTCENLLPQAITPRMMCVGFLSGGVDSCDGDSGGPLSSVEADGRIFQAGVVSWGDGCAQRNKPGVYTRLPLFRDWIKENTGV
B3 registered an EC50 of hC3 cleavage of 22.6 nM.

B4: MTSP-1 Q38H/I41A/D60bT/F60eR/F97T/ins97aE/T98G/F99L/C122S/Q175L/Q192V (enzyme)
chain: VVGGTDADEGEWPWQVSLHALGHGHACGASLISPNWLVSAAHCYIDTRGRRYSDPTQWTAFLGLHDQSQRSAPGVQERRLKRIISHPFFNDTEGLDYDIALLELEKPAEYSSMVRPISLPDASHVFPAGKAIWVTGWGHTQYGGTGALILQKGEIRVINQTTCENLLPQLITPRMMCVGFLSGGVDSCVGDSGGPLSSVEADGRIFQAGVVSWGDGCAQRNKPGVYTRLPLFRDWIKENTGV
Molecule B4 registered an EC50 of hC3 cleavage of 6.54 nM.

B5: MTSP-1 Q38F/I41A/D60bT/F60eG/Y60gW/ins97aE/F97T/T98G/F99L/C122S/Q175L/Q192E (enzyme)
chain: VVGGTDADEGEWPWQVSLHALGFGHACGASLISPNWLVSAAHCYIDTRGGRWSDPTQWTAFLGLHDQSQRSAPGVQERRLKRIISHPFFNDTEGLDYDIALLELEKPAEYSSMVRPISLPDASHVFPAGKAIWVTGWGHTQYGGTGALILQKGEIRVINQTTCENLLPQLITPRMMCVGFLSGGVDSCEGDSGGPLSSVEADGRIFQAGVVSWGDGCAQRNKPGVYTRLPLFRDWIKENTGV
Molecule B5 came in with an EC50 of hC3 cleavage of 1.25 nM.

B6: MTSP-1 D60bY/F97T/ins97aE/T98G/F99L/C122S/Q175L/Q192G (enzyme)
chain: VVGGTDADEGEWPWQVSLHALGQGHICGASLISPNWLVSAAHCYIDYRGFRYSDPTQWTAFLGLHDQSQRSAPGVQERRLKRIISHPFFNDTEGLDYDIALLELEKPAEYSSMVRPISLPDASHVFPAGKAIWVTGWGHTQYGGTGALILQKGEIRVINQTTCENLLPQLITPRMMCVGFLSGGVDSCGGDSGGPLSSVEADGRIFQAGVVSWGDGCAQRNKPGVYTRLPLFRDWIKENTGV
Regarding B6, the EC50 of hC3 cleavage is 4.1 nM.

B7: MTSP-1 Q38H/I41A/D60bT/F60eH/Y60gW/F97T/ins97aE/T98G/F99L/C122S/G151N/Q175L/Q192D (enzyme)
chain: VVGGTDADEGEWPWQVSLHALGHGHACGASLISPNWLVSAAHCYIDTRGHRWSDPTQWTAFLGLHDQSQRSAPGVQERRLKRIISHPFFNDTEGLDYDIALLELEKPAEYSSMVRPISLPDASHVFPAGKAIWVTGWGHTQYGGTNALILQKGEIRVINQTTCENLLPQLITPRMMCVGFLSGGVDSCDGDSGGPLSSVEADGRIFQAGVVSWGDGCAQRNKPGVYTRLPLFRDWIKENTGV
Molecule B7 returned an EC50 of hC3 cleavage of 6.95 nM.

B8: MTSP-1 Q38H/I41A/D60bK/F60eK/Y60gW/F97T/ins97aE/T98G/F99L/C122S/Q175L/Q192D (enzyme)
chain: VVGGTDADEGEWPWQVSLHALGHGHACGASLISPNWLVSAAHCYIDKRGKRWSDPTQWTAFLGLHDQSQRSAPGVQERRLKRIISHPFFNDTEGLDYDIALLELEKPAEYSSMVRPISLPDASHVFPAGKAIWVTGWGHTQYGGTGALILQKGEIRVINQTTCENLLPQLITPRMMCVGFLSGGVDSCDGDSGGPLSSVEADGRIFQAGVVSWGDGCAQRNKPGVYTRLPLFRDWIKENTGV
B8: the EC50 of hC3 cleavage is 22.3 nM.

B9: MTSP-1 Q38H/I41S/D60bA/F60eV/ins97aE/F97T/T98G/F99L/C122S/Q175L/Q192E/Q209L (enzyme)
chain: VVGGTDADEGEWPWQVSLHALGHGHSCGASLISPNWLVSAAHCYIDARGVRYSDPTQWTAFLGLHDQSQRSAPGVQERRLKRIISHPFFNDTEGLDYDIALLELEKPAEYSSMVRPISLPDASHVFPAGKAIWVTGWGHTQYGGTGALILQKGEIRVINQTTCENLLPQLITPRMMCVGFLSGGVDSCEGDSGGPLSSVEADGRIFLAGVVSWGDGCAQRNKPGVYTRLPLFRDWIKENTGV
B9 displayed an EC50 of hC3 cleavage of 16.9 nM.

B10: MTSP-1 Q38H/I41S/D60bT/F60eS/Y60gW/ins97aV/F97D/T98P/F99L/C122S/G151H/Q175L/Q192D (enzyme)
chain: VVGGTDADEGEWPWQVSLHALGHGHSCGASLISPNWLVSAAHCYIDTRGSRWSDPTQWTAFLGLHDQSQRSAPGVQERRLKRIISHPFFNDDVPLDYDIALLELEKPAEYSSMVRPISLPDASHVFPAGKAIWVTGWGHTQYGGTHALILQKGEIRVINQTTCENLLPQLITPRMMCVGFLSGGVDSCDGDSGGPLSSVEADGRIFQAGVVSWGDGCAQRNKPGVYTRLPLFRDWIKENTGV
As to B10, the EC50 of hC3 cleavage is 12.6 nM.

B11: MTSP-1 Q38H/I41A/F60eH/Y60gW/ins97aE/F97T/T98G/F99L/C122S/Q175L/Q192A (enzyme)
chain: VVGGTDADEGEWPWQVSLHALGHGHACGASLISPNWLVSAAHCYIDDRGHRWSDPTQWTAFLGLHDQSQRSAPGVQERRLKRIISHPFFNDTEGLDYDIALLELEKPAEYSSMVRPISLPDASHVFPAGKAIWVTGWGHTQYGGTGALILQKGEIRVINQTTCENLLPQLITPRMMCVGFLSGGVDSCAGDSGGPLSSVEADGRIFQAGVVSWGDGCAQRNKPGVYTRLPLFRDWIKENTGV
With B11, the EC50 of hC3 cleavage came out at 3.09 nM.

B12: MTSP-1 I41T/D60bY/F97T/ins97aE/T98G/F99L/C122S/Q175L/Q192G (enzyme)
chain: VVGGTDADEGEWPWQVSLHALGQGHTCGASLISPNWLVSAAHCYIDYRGFRYSDPTQWTAFLGLHDQSQRSAPGVQERRLKRIISHPFFNDTEGLDYDIALLELEKPAEYSSMVRPISLPDASHVFPAGKAIWVTGWGHTQYGGTGALILQKGEIRVINQTTCENLLPQLITPRMMCVGFLSGGVDSCGGDSGGPLSSVEADGRIFQAGVVSWGDGCAQRNKPGVYTRLPLFRDWIKENTGV
For B12, the EC50 of hC3 cleavage is 3.88 nM.

B13: MTSP-1 Q38E/I41S/D60bT/F60eR/F97T/ins97aE/T98G/F99L/C122S/Q175L/Q192V (enzyme)
chain: VVGGTDADEGEWPWQVSLHALGEGHSCGASLISPNWLVSAAHCYIDTRGRRYSDPTQWTAFLGLHDQSQRSAPGVQERRLKRIISHPFFNDTEGLDYDIALLELEKPAEYSSMVRPISLPDASHVFPAGKAIWVTGWGHTQYGGTGALILQKGEIRVINQTTCENLLPQLITPRMMCVGFLSGGVDSCVGDSGGPLSSVEADGRIFQAGVVSWGDGCAQRNKPGVYTRLPLFRDWIKENTGV
Turning to B13, the EC50 of hC3 cleavage turned out to be 32.7 nM.

B14: MTSP-1 Q38H/I41A/D60bV/F60eR/ins97aE/F97T/T98G/F99L/C122S/G151N/Q175L/Q192D (enzyme)
chain: VVGGTDADEGEWPWQVSLHALGHGHACGASLISPNWLVSAAHCYIDVRGRRYSDPTQWTAFLGLHDQSQRSAPGVQERRLKRIISHPFFNDTEGLDYDIALLELEKPAEYSSMVRPISLPDASHVFPAGKAIWVTGWGHTQYGGTNALILQKGEIRVINQTTCENLLPQLITPRMMCVGFLSGGVDSCDGDSGGPLSSVEADGRIFQAGVVSWGDGCAQRNKPGVYTRLPLFRDWIKENTGV
In turn, B14 returned an EC50 of hC3 cleavage of 6.06 nM.
